Molecular target: T1, Ad2 hexon, on wild-type human adenovirus type 2 virions (human adenovirus type 2, UniProt P03277 1-968)
T1 chain: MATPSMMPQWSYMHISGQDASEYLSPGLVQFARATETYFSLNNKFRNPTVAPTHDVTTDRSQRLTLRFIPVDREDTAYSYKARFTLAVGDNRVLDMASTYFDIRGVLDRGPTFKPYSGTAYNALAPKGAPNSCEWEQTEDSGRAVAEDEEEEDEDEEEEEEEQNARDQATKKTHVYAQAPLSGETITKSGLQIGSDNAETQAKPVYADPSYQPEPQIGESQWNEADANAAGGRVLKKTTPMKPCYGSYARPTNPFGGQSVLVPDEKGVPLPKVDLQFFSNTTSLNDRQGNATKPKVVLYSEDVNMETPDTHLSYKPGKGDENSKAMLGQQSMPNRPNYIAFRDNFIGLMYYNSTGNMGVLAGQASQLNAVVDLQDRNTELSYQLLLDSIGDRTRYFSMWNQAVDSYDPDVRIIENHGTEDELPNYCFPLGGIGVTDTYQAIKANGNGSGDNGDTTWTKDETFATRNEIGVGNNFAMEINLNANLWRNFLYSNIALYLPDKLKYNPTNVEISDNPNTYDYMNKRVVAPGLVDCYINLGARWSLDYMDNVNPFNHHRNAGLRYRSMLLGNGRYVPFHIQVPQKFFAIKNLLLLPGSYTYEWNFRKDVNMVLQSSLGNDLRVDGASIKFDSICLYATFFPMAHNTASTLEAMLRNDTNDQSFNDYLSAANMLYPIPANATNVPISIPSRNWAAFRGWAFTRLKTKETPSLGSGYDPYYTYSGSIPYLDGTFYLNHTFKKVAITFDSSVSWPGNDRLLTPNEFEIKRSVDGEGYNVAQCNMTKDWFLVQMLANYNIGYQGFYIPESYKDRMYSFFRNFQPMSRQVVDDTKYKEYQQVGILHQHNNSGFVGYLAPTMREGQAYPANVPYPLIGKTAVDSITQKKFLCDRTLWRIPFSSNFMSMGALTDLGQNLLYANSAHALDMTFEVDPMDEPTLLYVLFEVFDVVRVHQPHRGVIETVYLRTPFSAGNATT
Experiment: SPR

B1: mouse coagulation factor X (natural protein)
chain 1: ANSFFEEFKKGNLERECMEEICSYEEVREIFEDDEKTKEYWTKYKDGDQCESSPCQNQGACRDGIGGYTCTCSEGFEGKNCELFVRKLCRLDNGDCDQFCREEQNSVVCSCASGYFLGNDGKSCISTAPFPCGKITTGRR
chain 2: VALNTSDSELDLEDALLDEDFLSPTENPIELLNLNETQPERSSDDLVRIVGGRECKDGECPWQALLINEDNEGFCGGTILNEFYILTAAHCLHQARRFKVRVGDRNTEKEEGNEMVHEVDVVIKHNKFQRDTYDYDIAVLRLKTPITFRMNVAPACLPQKDWAESTLMTQKTGIVSGFGRTHEKGRQSNILKMLEVPYVDRNTCKLSTSFSITQNMFCAGYEAKLEDACQGDSGGPHVTRFKNTYYVTGIVSWGEGCARKGKYGIYTKVTTFLKWIDRSMKARVGPTAETPRTAGPPN
modifications: gamma-carboxylated glutamate residues in the Gla domain
- Kd: 0.76 nM

Reference: paper PMC9536601 (2022)
